# Assay results reported in patent US7235648B1, “Yeast cells engineered to produce pheromone system protein surrogates, and uses therefor” (Cadus Technologies, Inc., priority 1993, dated 2007).
# T1: yeast Gβγ (Saccharomyces cerevisiae, UniProt P18851+P18852)
# T1 construct: Endogenous Gβγ subunits will be provided by the yeast STE4 and STE18 loci; endogenous in cells; host or cells: S. cerevisiae gpa1 tester strains
# T1 sequence (P18851 1-423): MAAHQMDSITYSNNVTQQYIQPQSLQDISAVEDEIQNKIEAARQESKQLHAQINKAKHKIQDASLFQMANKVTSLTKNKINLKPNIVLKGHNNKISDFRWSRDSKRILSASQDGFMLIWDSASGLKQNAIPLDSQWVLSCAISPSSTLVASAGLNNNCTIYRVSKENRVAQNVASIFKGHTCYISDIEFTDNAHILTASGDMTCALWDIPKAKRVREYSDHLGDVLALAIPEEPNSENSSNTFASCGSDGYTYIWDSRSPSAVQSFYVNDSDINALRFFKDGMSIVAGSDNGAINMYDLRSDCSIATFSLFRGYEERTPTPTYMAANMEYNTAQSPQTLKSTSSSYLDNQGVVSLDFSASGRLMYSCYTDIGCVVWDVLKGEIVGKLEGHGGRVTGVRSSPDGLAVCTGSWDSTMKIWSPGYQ
# T1 sequence (P18852 1-107 limits assumed): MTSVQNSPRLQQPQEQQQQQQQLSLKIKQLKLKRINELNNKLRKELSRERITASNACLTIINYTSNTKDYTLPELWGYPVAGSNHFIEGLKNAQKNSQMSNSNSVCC
# T2: C5a receptor (Homo sapiens, UniProt P21730)
# T2 sequence (P21730 1-350): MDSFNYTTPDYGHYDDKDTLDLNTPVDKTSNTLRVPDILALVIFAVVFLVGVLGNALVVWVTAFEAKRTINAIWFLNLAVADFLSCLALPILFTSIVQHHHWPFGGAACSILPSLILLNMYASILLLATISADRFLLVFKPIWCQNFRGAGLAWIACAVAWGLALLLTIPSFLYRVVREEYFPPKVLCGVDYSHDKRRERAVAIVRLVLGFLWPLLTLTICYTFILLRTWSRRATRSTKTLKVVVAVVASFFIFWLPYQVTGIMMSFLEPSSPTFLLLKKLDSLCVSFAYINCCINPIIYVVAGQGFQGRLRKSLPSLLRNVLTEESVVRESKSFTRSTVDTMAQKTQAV
# T3: induced HL60 cells (Homo sapiens, UniProt P21730)
# T3 construct: endogenous in cells; host or cells: induced HL60 cells
# T3 sequence (P21730 1-350): T2 sequence (P21730 1-350)
# B1: GPA141-Gαi2: first 41 amino acids of GPA1 fused to human Gαi2 (protein)
# chain: MGCTVSTQTIGDESDPFLQNKRANDVIEQSLQLEKQRDKNEVKLLLLGAGESGKSTIVKQMKIIHE
# B2: C5a: 74 amino acid polypeptide that derives from the fifth component of complement; anaphylatoxin (protein)
# chain: TLQKKIEEIAAKYKHSVVKKCCYDGACVNNDETCEQRAARISLGPRCIKAFTECCVVASQLRANISHKDMQLGR
# Experiments:
# [1] = molecular target: T1, yeast Gβγ; assay: Coupling of Gα subunits and hybrids to yeast Gβγ: complementation of gpa1 growth arrest phenotype and fus1-HIS3 transcription; assay type: cell-based
# Text: We have tested the hypothesis that there are switch region determinants involved in the association of Gα with Gβγ by constructing a series of hybrid Gα proteins encoding portions of GPA1 and GαS in different combinations (FIG. 11).
# Preferably, levels of Gα and Gβγ subunits are balanced. For example, heterologous Gα subunits may be expressed from a low copy (CEN ARS) vector containing the endogenous yeast GPA1 promotor and the GPA1 3′ untranslated region. The minimum criterion, applied to a heterologous Gα subunit with respect to its ability to couple functionally to the yeast pheromone pathway, is that it complement a gpa1 genotype when expressed from the GPA1 promoter on low copy plasmids or from an integrated, single copy gene. In the work described in this application, all heterologous Gα subunits have been assayed in two biological systems.
# [2] = molecular target: T2, C5a receptor; assay: Coupling of the C5a receptor to Gα chimeras in yeast; assay type: cell-based; set-up: expressed in transfected cells; host or cells: S. cerevisiae CY455 / CY878 carrying GPA1(41)-Gαi2, plasmid Cadus 1303; details: GPA1 promoter; single copy integrated or low copy plasmid
# Method: Coupling by chimeric Gα_proteins._The Gα chimeras described above were tested for the ability to couple a mammalian G protein-coupled receptor to the pheromone response pathway in yeast. Results obtained using GPA141-Gαi2 to couple the human C5a receptor to the pheromone response pathway in autocrine strains of yeast are disclosed in Example 10 above.
# With this phenomenon, there is an increase in growth on selective media for strains containing heterologous receptor in the absence of ligand. It is possible that some receptor antagonists would decrease LIRMA. It has been noted (Milano, et al. 1994) that specific antagonists reduce LIRMA of the β2 adrenergic receptor when that receptor is overexpressed in transgenic mice.
# [3] = molecular target: T3, induced HL60 cells; assay: Competition with radiolabeled C5a for binding on induced HL60 cells; details: C5a expressed in yeast
# [4] = molecular target: T2, C5a receptor; assay: Autocrine yeast expressing human C5a receptor and human C5a, growth read-out (fus1-HIS3); assay type: cell-based; set-up: expressed in transfected cells; host or cells: S. cerevisiae CY455 / CY878 carrying GPA1(41)-Gαi2, plasmid Cadus 1303
# Text: The strain used for this analysis, CY455 (MATαtbt1-1 ura3 leu2 trp1 his3 fus1-HIS3 can1 ste14::TRP1 ste3*1156), contains the following significant modifications. A pheromone inducible HIS3 gene, fus1-HIS3, is integrated at the FUS1 locus. A hybrid gene containing sequence encoding the first 41 amino acids of GPA1 (the yeast Gα subunit) fused to sequence encoding human Gαi2a (minus codons for the N-terminal 33 amino acids) replaces GPA1 at its normal chromosomal location. The yeast STE14 gene is disrupted to lower the basal level of signaling through the pheromone response pathway. The yeast a-factor receptor gene, STE3, is deleted. The last two modifications are probably not essential but appear to improve the signal-to-noise ratio. […]
# Three colonies were picked from each transformation and grown overnight in media lacking leucine and uracil, at pH 6.8 with 25 mM PIPES (LEU^− URA^− pH6.8 with 25 mM PIPES). […] The optical density at 600 nm of a 1/20 dilution of these cultures was determined and the cultures were diluted into 25 mM PIPES pH 6.8 to a final OD600 of 0.2. […] For verification of pheromone pathway activation and quanti-fication of the stimulation, the activity of the fus1 promoter was determined colorometrically using a fus1-lacZ fusion in a similar set of strains. […]
# [5] = molecular target: T2, C5a receptor; set-up: host or cells: mammalian cells (not specified); details: mammalian cells; Boulay et al. 1991; read-out: binding constant of C5a to its receptor; cited from earlier work
Molecule,functional complementation of the growth arrest phenotype of gpa1 strains [1],Result (coupling of the C5a receptor to Gα chimeras in yeast) [2],competition for binding with radiolabeled C5a [3],"growth on selective plates lacking histidine (pheromone pathway activation via C5a receptor) ([4]; CY455 R+L+ strain, pH 6.8, 1 mM aminotriazole)","aminotriazole concentration on which the R+L+ strain will grow ([4]; CY455 R+L+, highest concentration tested)",Kd [5]
B1,functionally complement,"GPA141-Gαi2single copy, Good signal to noise ratio:",,,,
B2,,,compete for binding,show growth on the selective plates,up to 5 mM,1 nM
